# Experimental data as given in patent US20180371460, “Depletion of Abundant Serum Proteins to Facilitate Biomarker Discovery” (UNIVERSITY OF UTAH RESEARCH FOUNDATION, published 2018).
# B1: 36 (ssDNA)
# DNA: GCGCATACCAGCTTATTCAATTCGGATAGACAACATGGGGAAGAACAGTGTCTAGTCGTGGGTTGCTCTGTAAGATAGTAAGTGCAATCTCGGC
# B2: H1 (ssDNA)
# DNA: GCGCATACCAGCTTATTCAATTACGCTCAGGACTAAAAATGGGCGTGACCATGAGCTCAGTATGGGCGTTACAGATAGTAAGTGCAATCTCGGC
# B3: H3 (ssDNA)
# DNA: GCGCATACCAGCTTATTCAATTGATCCATACAAGGGTAGGTTGACTTCCGCCCAAGGGGGCGAGGCCGTGAGATAGTAAGTGCAATCTCGGC
# B4: H2 (ssDNA)
# DNA: GCGCATACCAGCTTATTCAATTTCAAAGGCTGACCGGATGGGCTTCGTGACCGGGTACGCCACTGCCTCGTGAGATAGTAAGTGCAATCTCGGC
# B5: H5 (ssDNA)
# DNA: GCGCATACCAGCTTATTCAATTAGGAACGCACCCGAGTGTTGCGCGAGCCAGTGGCTGGTTGGCCCGTATAAGATAGTAAGTGCAATCTCGGC
# B6: 19 (ssDNA)
# DNA: GCGCATACCAGCTTATTCAATTAACGTGTAGAGGTGTTCACGCACCACGCCGACTGTGGTTGACCCACAGTTAGATAGTAAGTGCAATCTCGGC
# B7: 40 (ssDNA)
# DNA: GCGCATACCAGCTTATTCAATTCGGTAGTGCAGCGGCTTGAAATCAGCCGTGCTTTCGGGACGGAACTACTCAGATAGTAAGTGCAATCTCGGC
# B8: P1 (ssDNA)
# DNA: GCGCATACCAGCTTATTCAATTGCATAGTCATGCGGGAATAGTTTTCGATGAGGGCTATTGGAGGCCCCAGCAGATAGTAAGTGCAATCTCGGC
# B9: 35 (ssDNA)
# DNA: GCGCATACCAGCTTATTCAATTCGGTACGTGACGCAAAAAAGGTCGGGCGGCTGACATGGCACCTCGTCTAAAGATAGTAAGTGCAATCTCGGC
# B10: H6 (ssDNA)
# DNA: GCGCATACCAGCTTATTCAATTGCGTACCTAGGATTTACTTTCTCAAGATATTTGGAGTGACAAGTGGCATAAGATAGTAAGTGCAATCTCGGC
# How the values were obtained:
# [1] = target: T1, Human serum albumin (HSA), denatured (Homo sapiens, UniProt P02768 P02768:25-609); test: pulldown; 1% SDS or Tween 80 with 50 mM DTT, or 1% Tween 80 with 25 mM TCEP, PBS pH 7.4; blank beads control; conditions: tags: none; denatured with 1% surfactant and reduced with DTT or TCEP; label: 5'-fluorescein (gel shift) or 5'-thiol-hexaethylene glycol on magnetic beads (pull-down)
# T1 sequence (P02768 25-609, one chain of several): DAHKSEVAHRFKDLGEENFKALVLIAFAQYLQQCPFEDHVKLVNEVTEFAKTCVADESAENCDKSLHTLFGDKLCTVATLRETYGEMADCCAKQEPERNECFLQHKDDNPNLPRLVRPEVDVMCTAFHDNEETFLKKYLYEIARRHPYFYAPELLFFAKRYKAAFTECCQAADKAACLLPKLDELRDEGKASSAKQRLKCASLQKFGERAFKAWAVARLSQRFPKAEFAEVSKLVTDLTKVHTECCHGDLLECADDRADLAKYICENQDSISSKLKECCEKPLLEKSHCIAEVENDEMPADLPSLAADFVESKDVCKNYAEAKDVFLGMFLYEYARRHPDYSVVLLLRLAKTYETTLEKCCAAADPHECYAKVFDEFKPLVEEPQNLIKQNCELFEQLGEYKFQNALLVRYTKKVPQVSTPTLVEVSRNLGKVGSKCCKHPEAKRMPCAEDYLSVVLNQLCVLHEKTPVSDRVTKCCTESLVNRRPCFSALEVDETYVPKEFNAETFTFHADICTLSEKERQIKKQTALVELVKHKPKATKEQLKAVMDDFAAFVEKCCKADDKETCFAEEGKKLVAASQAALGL
# Description: Pull-down. HSA (2 mg/mL from Gemini) was denatured in 1% surfactant (either Tween 80 or SDS) and 50 mM DTT in PBS (pH=7.4) for 1 hr. The binding buffers consisted of 50 mM freshly prepared DTT. The beads were equilibrated with 2 mL of the binding buffer used during the pull-down prior to protein addition. Protein (40 μg/mL) was then added to the columns and these were placed on a nutating mixer for 1 hr. The samples were then placed on the magnetic separation stand for 4 min, and the supernatant was removed. The beads were then washed twice with 1 mL binding buffer, collecting the supernatant each time. Bound protein was eluted using 300 μL of 4M urea with 0.1% surfactant and repeated to recover all bound protein. For each elution, the beads were incubated at 95° C. for 10 min. The beads were regenerated by rinsing with 1 mL of 1M NaCl followed by 2 mL of PBS. They were then stored in PBS in the refrigerator.
# The aliquots were then concentrated using a 10 kDa Amicon spin filter. The samples were run on a NuPAGE™ Novex™ 4-12% Bis-Tris protein gel at 200 V for 40 min and stained with Spyro Ruby. The gels were visualized with a Typhoon FLA 9500 gel imager using a 473 nm laser and an LPG filter. FIG. 13 is a gel showing the results of the pull down (using nucleic acid 36) of HSA denatured with SDS (upper image) or Tween 80 (lower image) and reduced with DTT.
# HSA binding with TCEP. […]
# [2] = target: T1, Human serum albumin (HSA), denatured; test: EMSA; tested in lane 4, not listed among binders; PBS pH 6, 50 mM DTT, 1% SDS; conditions: tags: none; denatured with 1% surfactant and reduced with DTT or TCEP; label: 5'-fluorescein
# Description: (§1) Gel shift assays were then performed to determine which of these nucleic acids would bind to HSA under denaturing and reducing conditions. Specifically, 40 nmol of the fluorescein labeled DNA was incubated with 3 μM denatured HSA in PBS (pH=6) containing 50 mM fresh DTT and 1% SDS at room temperature for 1 hr. The samples were then run on an 8% nondenaturing gel (PBS pH=6, 0.1% SDS) at 100 V for 1 hour at 4° C. The gels were imaged using a Typhoon FLA 9500 gel imager using a 473 nm laser and an LPB filter. FIG. 12 is a representative gel showing the results of the gel shaft assays for the fluorescein labeled forms of the following nucleic acids: 35 (lane 1), 36 (lane 2), 40 (lane 3), H1 (lane 4), H2 (lane 5), H3 (lane 6) and H5 (lane 7).
# [3] = target: T1, Human serum albumin (HSA), denatured; test: EMSA; tested in lane 6, not listed among binders; PBS pH 6, 50 mM DTT, 1% SDS; conditions: tags: none; denatured with 1% surfactant and reduced with DTT or TCEP; label: 5'-fluorescein
# Description: as §1
# [4] = target: T1, Human serum albumin (HSA), denatured; test: EMSA; tested in lane 5, not listed among binders; PBS pH 6, 50 mM DTT, 1% SDS; conditions: tags: none; denatured with 1% surfactant and reduced with DTT or TCEP; label: 5'-fluorescein
# Description: as §1
# [5] = target: T1, Human serum albumin (HSA), denatured; test: EMSA; tested in lane 7, not listed among binders; PBS pH 6, 50 mM DTT, 1% SDS; conditions: tags: none; denatured with 1% surfactant and reduced with DTT or TCEP; label: 5'-fluorescein
# Description: as §1
# [6] = target: T1, Human serum albumin (HSA), denatured; test: pulldown; 1% surfactant, 50 mM DTT or 25 mM TCEP, PBS pH 7.4, 40 ug/mL HSA; conditions: tags: none; denatured with 1% surfactant and reduced with DTT or TCEP; label: 5'-fluorescein (gel shift) or 5'-thiol-hexaethylene glycol on agarose (pull-down)
# Description: The beads were equilibrated with 3 bed volumes of the binding buffer used during the pull-down prior to protein addition. Protein (40 μg/mL) was then added to the columns and placed on a nutating mixer for 45 min followed by 15 minutes of stationary incubation. The supernatant was then collected via centrifugation. The resin was then washed twice with 700 μL binding buffer, collecting the flow-through each time. Bound protein was then eluted using 300 μL 4 M urea with 0.1% surfactant and repeated to recover all bound protein. For each elution, the column was placed on a nutating mixer for 30 min. The A280 was then measured for each aliquot to determine the percent bound.
# [7] = target: T1, Human serum albumin (HSA), denatured; test: EMSA; tested in lane 1, not listed among binders; PBS pH 6, 50 mM DTT, 1% SDS; conditions: tags: none; denatured with 1% surfactant and reduced with DTT or TCEP; label: 5'-fluorescein
# Description: as §1
binder,measurement,setting,value
B1,binding result,[1],binds
B2,binding result,[2],no binding
B3,binding result,[3],no binding
B4,binding result,[4],no binding
B5,binding result,[5],no binding
B6,binding signal,[6],10.3 % HSA bound
B7,binding signal,[6],10.3 % HSA bound
B8,binding signal,[6],12.7 % HSA bound
B9,binding result,[7],no binding
B10,binding signal,[6],10 % HSA bound
